The assay deals with PD-L1 on CHO-PDL1-CD3L cells (UniProt Q9NZQ7 19-290, limits assumed). Nature of the assay: cell-based or functional assay.

Where “and” joins values, the source holds several entries; their conditions need not be identical. Identical values can stand only once.

Chain of PD-L1 on CHO-PDL1-CD3L cells (Q9NZQ7 19-290 limits assumed): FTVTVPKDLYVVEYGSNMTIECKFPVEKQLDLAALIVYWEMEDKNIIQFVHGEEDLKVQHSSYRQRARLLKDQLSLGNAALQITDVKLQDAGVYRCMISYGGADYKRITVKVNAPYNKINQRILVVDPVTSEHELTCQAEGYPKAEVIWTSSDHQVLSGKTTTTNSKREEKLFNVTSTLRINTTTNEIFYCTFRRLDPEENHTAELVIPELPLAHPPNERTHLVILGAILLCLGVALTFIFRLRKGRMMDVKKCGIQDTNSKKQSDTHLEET

B1: PD-L1 antibody (humanized 5G11-IgG1 antibody of CN107001463) (antibody, V domains shown)
VH: QITLKESGPTLVKPTQTLTLTCTVSGFSLSTYGVHWIRQPPGKALEWLGVIWRGVTTDYNAAFMSRLTITKDNSKNQVVLTMNNMDPVDTATYYCARLGFYAMDYWGQGTLVTVSS
VL: DIQMTQSPSSLSASVGDRVTITCKASQSVSNDVAWYQQKPGKAPKLLIYYAANRYTGVPDRFSGSGYGTDFTFTISSLQPEDIATYFCQQDYTSPYTFGQGTKLEIKR
As for B1, the “Biological activity (EC50 of reference sample/EC50 of test sample x 100%)” value was 100%; the “EC50 (nmol/L), reporter gene assay (CHO-PDL1-CD3L + Jurkat-PD-1-NFAT, luciferase RLU)” value was 4.6 nmol/L and 4.15 nmol/L.

For the origin of these results see patent publication US20220289825A1 (NANJING SHUNXIN PHARMACEUTICALS CO LTD OF CHIATAI TIANQING …, published 2022).
